Results: PMC6959358

How the values were obtained:
Assay in all cases: co-immunoprecipitation (DYK-antibody beads) with immunoblot quantification
troponin I = troponin I (UniProt P19429); details: TnT-DYK expressed in HEK cells, immobilized on DYK-antibody beads, incubated with healthy control iPSC-CM lysate; n = 5; DYK negative control subtracted …; parent: est. 1.0; read off a plot
troponin C = troponin C (UniProt P63316); details: TnT-DYK expressed in HEK cells, immobilized on DYK-antibody beads, incubated with healthy control iPSC-CM lysate; n = 6; DYK negative control subtracted …; parent: est. 1.0; read off a plot
PKA = details: TnT-DYK expressed in HEK cells, immobilized on DYK-antibody beads, incubated with healthy control iPSC-CM lysate; n = 4; DYK negative control subtracted …; parent: est. 1.0; read off a plot
tropomyosin = tropomyosin (UniProt P09493); details: TnT-DYK expressed in HEK cells, immobilized on DYK-antibody beads, incubated with healthy control iPSC-CM lysate; n = 5; DYK negative control subtracted …; parent: est. 1.0; read off a plot
Sequence of UniProt P09493 (P09493 whole entry): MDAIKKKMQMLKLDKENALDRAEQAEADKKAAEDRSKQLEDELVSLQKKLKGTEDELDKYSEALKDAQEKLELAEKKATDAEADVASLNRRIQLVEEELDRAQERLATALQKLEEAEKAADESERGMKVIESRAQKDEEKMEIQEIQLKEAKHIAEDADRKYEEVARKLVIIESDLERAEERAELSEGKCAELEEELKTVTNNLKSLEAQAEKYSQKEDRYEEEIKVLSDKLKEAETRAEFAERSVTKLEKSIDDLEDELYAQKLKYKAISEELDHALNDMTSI

Sequence of UniProt P19429 (P19429 whole entry): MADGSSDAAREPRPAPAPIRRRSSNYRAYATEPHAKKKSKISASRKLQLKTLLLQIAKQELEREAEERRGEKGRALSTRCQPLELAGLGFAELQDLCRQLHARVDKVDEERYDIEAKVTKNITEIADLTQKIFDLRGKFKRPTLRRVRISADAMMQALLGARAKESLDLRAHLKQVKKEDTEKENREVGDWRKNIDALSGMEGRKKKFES

- ratio to parent (troponin I): 0.73
- ratio to parent (troponin C): 0.78
- ratio to parent (PKA): 0.42
- ratio to parent (tropomyosin): 0.57
Substance: TnT-WT-DYK (human cardiac troponin T, wild type, flag (DYK)-tagged) R173W
